The nature of the data set: label from the status in PepcDB records.
With “MIDIKVDPRLKSQRFRQEREADWRRLERLIGKVEKGSIADLSDEDLLAAPVLYRSALSALSVARATSLDRALIAYLETLCARAYFFVYGSRETLWGQLKGFFAGDWPAAVRGLWRETLVSAALMALGVMIAAWLVGHDPDWFYAFVPRELAGGRDPAATTEALAATLGGKDASGLTVFATFLFTHNAQVALLAFALGFALCVPTAGLVLYNGAMLGAFLALFASRGLGIELGGWLLIHGVTELFAVILAGAAGLRIGWAAAFPGERRRLDALAEAGRHAATVMGGVVVMLFLAGLLEGFGRQLITDTAARYGVAAATALMWGLYFYGPRRHG”, the protein production result is reported as “failed”.
With “PAKRAFSNADQFVETMLPLAKEAAARIGVDPVMLVAQAALETGWGKSIMRQQDGSSSHNLFGIKAAGSWKGAEARAITSEFRDGKMVKETADFRSYDSYADSFHDLVSLLQNNNRYKDVVNSADKPEQFVKELQKAGYATDPAYASKISQIAKQMKS” the entry was “not failed”.
With “DPSVFSLPDSKLPGDKEFVPWQQDLDDSVKPTQQARPTVIRWSEGGKEVFISGSFNNWSTKIPLIKSHNDFVAILDLPEGEHQYKFFVDGQWVHDPSEPVVTSQLGTINNLIHVKKSDFEVFDALKLDSMESSETSCRV” the entry was “failed”.
The same measure for “MGSSSSFSSSSSKLLFRQLFENESSTFTYLLADVSHPDKPALLIDPVDKTVDRDLKLIDELGLKLIYAMNTHVHADHVTGTGLLKTKLPGVKSVISKASGSKADLFLEPGDKVSIGDIYLEVRATPGHTAGCVTYVTGEGADQPQPRMAFTGDAVLIRGCGRTDFQEGSSDQLYESVHSQIFTLPKDTLIYPAHDYKGFEVSTVGEEMQHNPRLTKDKETFKTIMSNLNLSYPKMIDVAVPANMVCGLQDVPSQAN”: “not failed”; for “MEETPKTTLPHKFLKNILMLDVLKVRIYPNKEQEISLAKSFGCSRFVWNFYLNKTNTQYEETGKGMTYCQMAKDLTQLKKLSDYEWLQEPTAAVLQQSLKNLESAFKNFFSKRAGFPKFKSKHSKQSIRFPESCSIKDSGLKLPKLGIVKVSLSKKINSKIKSVTVSKTSTGKYFAALLFEAKDLTNNKQGKISGIDLGLTSLITVFDGETCYKVDPIKPTRKYAKRLRIRQKALSRKVKGSNNRRKAIKVVAKVHEKISNTRQDFLHKLSRKLVDDNQIIVAENLCVKGLARTKLAKSIHDAGFGMLLNFISYKLEREGGKFVQVDRFFPSSKLCSCCGHKNNLLNLSIREWICPSCQTTHDRDENASRNLRTEGIRILETNTAGHAEIQACGETVRLVGTCAKKRVSEKQESPATLLCG”: “failed”; for “MKKFFKLKENKTTVRTEVLAGITTFFAMSYILFVNPSILSQTGMPSQGVFLATIIGSIAGTLMMGLYANIPYAMAPGMGLNAFFTYTVVFSLGYTWQEALAMVFICGIISIVITLTRVRRMIIDEIPDSLKKAISAGIGIFLTYIGLKNAGLLNFAIDPGTYSVSGKGAAKGLASITANSSATPSLVNFNNPAVLVAVIGIIITAFFIIKNIKGGVILSIIVTTVIALLAGVVDLSKIDFSANNPVAAVKDLGTIFGAALGNKGLGALFSDAGRIPEVLMTILAFALTDIFDNVGTLIGTGAKAGIFDVTSESTSSGLQNKMDKALFSDMVGTTVGAVAGTSNVTTFVESAAGIGAGGRTGLTAVVVALLFAVSSFFSPLLAIVPTQATAAVLLIVGIMMLSSLKDIEWSDMSQAIPAFFATVFMGLAYSITQGIATGFLFYTFSKLIKKEAKDIHPIIWVLDVLFILNFISLAVL”: “failed”.
As for “MSTAAETTGGDIEPWEEVTPDAARRLLVAAVEAFAERGYHATTTRDIAGRAGMSPAALYIHYKTKEELLHRISRIGHTRAVAILRSAAQGEGSAAERLADAVSSFVRWHAGRRTTARVVQYELDALGPEAREEILTLRRQCDAAVRGIIDDGVAAGEFDVPDVKGTTLAVLSLCIDVARWFNVNGPRTPDEVGALYADLVLRMVGAEPSGATAQR”, the protein production result was “not failed”.
The same measure for “MLEQSLRHYYQLVLVDPILPALRDRITPLSITWLSGIFGLLFIPFVLLDKPYIAISFLLLSGYLDTLDGSLARFQNRASDFGSAMDIVIDRIVEFSAVLALYLFDPQHRATLAILMLGSILLCITSFLVVGIFSNNTTQKSFYYSPGIMERAEAFLFFIFMTLFSSCFNFLAALFCFLVCLTALIRLFEFKKSVQAPS”: “failed”; for “MSFSTEIEVRFKHCDPAGIVFFPRYFEMINDVVEDWFANDLGCPFHELVKENGAPTAQIQARFTAPSLHGDVLSFRLTPTRIGNSSLDYDLTAHCGDELRLRATATLVHVARLGRSQPWPQAIRERVAAQIDSALEHHHHHH”: “failed”.
With “MGHHHHHHSHMFASCHCVPRGRRTMKMIHFRSSSVKSLSQEMRCTIRLLDDSEISCHIQRETKGQFLIDHICNYYSLLEKDYFGIRYVDPEKQRHWLEPNKSIFKQMKTHPPY” the entry was “failed”.
The same measure for “MSLSEIKHWVFDMDGTLTIAVHDFAAIREALSIPAEDDILTHLAALPADESAAKHAWLLEHERDLAQGSRPAPGAVELVRELAGRGYRLGILTRNARELAHVTLEAIGLADCFAEADVLGRDEAPPKPHPGGLLKLAEAWDVSPSRMVMVGDYRFDLDCGRAAGTRTVLVNLPDNPWPELTDWHARDCAQLRDLLSA”: “not failed”; for “MKKGRFKRNWPIILFGIIVFIFSFYFKISPKSLKNFTDIMSASLSFSAIVTAIFFASFSLIPTSGSNKLVVMMEDLGTEIKIMDRLLVATFLSFISSLLSFISLFFSKTDTDLISILVVSSWLSSTVMMFLSSFFVLRTLILLVETYNNFKNK”: “failed”.
Regarding “MTADSQTCFCVCTMAVTVTNNQAIDLSRAKAQGRAMAKPLTSHRPILAVSLKLGALVLFTSMSALIKVLSADFPAGEMVFFRSLFAIPVIILWLLARGELRQGLIVKKPMGHFWRGVLGTGAMGLTFTGLGLLPLPEVTAIGYATPIFTLILAALMLGETIRLVRIGAVALGLLGVLIMLWPRLGTGASLDQAATIGALCVLAATVARAFVQIHIRQLVQVDHAAAIVFYFSLTATLLSGLTAFFGWVTPTPEQAAILILTGLVGGVAQILVTSSYRFGQASMLAPYDYASMLFAIIIGYIWFDEWPTLVMLAGAMLVIAGNVVVIWRERQLGLERGKARSVTDPKG”, the protein production entry is reported as “failed”.
With “MSHIQRETSCSRPRLNSNLDADLYGYRWARDNVGQSGATIYRLYGKPNAPELFLKHGKGSVANDVTDEMVRLNWLTAFMPLPTIKHFIRTPDDAWLLTTAIPGKTAFQVLEEYPDSGENIVDALAVFLRRLHSIPVCNCPFNSDRVFRLAQAQSRMNNGLVDASDFDDERNGWPVEQVWKEMHKLLPFSPDSVVTHGDFSLDNLIFDEGKLIGCIDVGRVGIADRYQDLAILWNCLGEFSPSLQKRLFQKYGIDNPDMNKLQFHLMLDEFF” the entry was “not failed”; with “MLKVAIAEDDFRVAQIQEEFLLKIKDVKVMGKALNAKETMELLQREEIDLLLLDNYLPDGIGTDLLPQIHAEFPNVDVIMVTAANENHMLEKAIRNGVSNYLIKPVTLEKFVRTIEDYKRKKQLLHNNNEVNQTLIDNFFGISQTQDIKNLPTGVDPLTLQKVKGIIKGFEEGITIEEMGEQMGASRTTARRYLEYLVATNECTVEYTYGIIGRPERKYRIGRGL”, “failed”; with “SAELGLNEHHQNEVINYMRFARSKRGLRLKTVDSCFQDLKESRLVEDTFTIDEVSEVLNGLQAVVHSEVESELINTAYTNVLLLRQLFAQAEKWYLKLQTDISELENRELLEQVAEFEKAEITSSNKKPILDVTKPKLAPLNEGGTAELLNKEILRLQEENEKLKSRLKTIEIQATNALDEKSKLEKALQDLQLDQGNQKDFIKAQDLSNLENTVAALKSEFQKTLNDKTENQKSLEENLATAKHDLLRVQEQLHMAEKELEKKFQQTAAYRNMKEILTKKNDQIKDLRKRLAQYEPED”, “not failed”.
The same measure for “MTLDTAAGHPTMDFADRCPLPYTSPTHLQAVAYLHGIVAADPDRARVLELGCMSGANLLPFATAYPQAQAVGIDLDEEKIAQGQMWVQQYGLTNLQLQAMDLGSLLDSDLGKFDYIIVHGVFGLISGEARSALLAYCHRHLSAKGVVCFSYSTYPGGKTEEILQDALNLHASLAETPEQQQASARAMLSYLSLGMSADNPQRAAITTLVEEAEKLGDVSLALNYLQGLNQPCYLLDFNALIAQEGLSYVGEIEPHTEIASHYGEQVDSLLRAICPTGNKVLKQQYLDFNVGRKRRFSLLVATERAGKLESEIDISRLDKLSWAGSFRRVMLNKGLASNAHVTNAGIQISTDHELTQQILDVLGNAWPASVSFKQLIFNTHFPEKENDKQEHENNIRESLYALLKQGISSIHFCVGECAYRKSEFSALRALPNCGDIYPTFNYWYESFTLPSEALGLKIPMSLLEEQKEGSLALLDELHHKGLMIGSALAWQRYFQKRLELAKDVNDVIHSINPLIMYSSNASGGGLFKASDVIKVEKSRKEFVNDPIDAKFKGQLYDLLQKQKYDEARSLAEELTVKQPNNLQNWIALERINFVTGDKDAAIFSLAKVISMHSNAWLVYSELASLLHNTYNYWEAINLAYRVIRCDGNIAVAWNVVALVYLKFENMAGAEVCIEKAMKLLPNDAAILNAMAMVLDKKSDVESAIEYYRQAVSNAPEDLSLYSNLLFALLHNAKIPASEIFAEHLLYGDVVEKRNGALAPVRYLQNKDPDRVLRIGFVSGDLYSHPVSKFLSPVWNDIDHQHFSLYAYSTSHHHDDVTRMLEKNSTVWRNVASSSDTELFDLIKRDEIDILFDLSGHTGDNRLSMFAMKPAPIQISWIGYPGTTGLKAMDYYLVMNHAPYPEVLAHQFTEKLLYVLFDRQFEPVVNGPEVNDLPALTNGYLTFASFNRPTKINDTVLSAWGKILVQLPTSKMIIGALPSLQTRDLIRKKLESQGVQPEQLIFRERVNIMNYLAMHQEIDVLLDTFPYTGGTTTNYALWMGVPTLTLAGETYAARQGVVNLGQAGLNEFIAHSEADYIDKAISCNNRLDELNQIRHSLRKKMEYDIDTSDATAATYFEQALRTVWKAYCDGQPPKSYSIGH”: “failed”; for “MNQKISPPSQKLDGLFLLALSMAVFFVGVTEFMLSSMLGPLAQAFHTTTSGAAWLISSYAFSYAIAAPLLGYFSDRMQRRKLLLLALVLFAVDTLAIVIAPTLEIAVVLRVIGGIASAIIIPTTFALVAEVVAPQRQAGAMGQVMLGMTLGIAAGPALAGLLSDFFGWAAPFLLVSCGCVLVFLMARQRLPVQAVAPRAEGHALGWCRQWSILRPLIAKGAWNGTGVAGLLLSGEVLRQRYGFSTAQIGVSIAAFGVGLAVGNLAAGYLRRYLKRDEDMLLLVLALLVLSMSTFMLLPLPLPVALCCLGAWGAALGLGAPAGTVVLASRSGPDKGMVLSFAETFNNIAILASVPLAVRLLELKGPPATLWVLGIGLGIGAWFTVLDWFASRRSNEALPLRD”: “failed”; for “MGSFDDVIGNHQADTAMIVQISADRKEINLVSIPRDSLVDVPQCETSKGTIPAQYNVMFNSIFAGAYKTGGDLSSAASCTLNAVNSLTGLNIQNFIVVDFAGLVKMIDSVGGVDLCIPQNVNDPYTGLNLDKGMHHLDGVAATQYARIRHGIGDGSDTSRTTRQQYLIKQLMSEALSKNLFTDTAQLYQLAKSALKSLNISQGMADTAALAGLAMSLKNFTMTNLQTQTVPVVPAPSDPNRSVWTDEADNLWEKMRAGKPIFDTADSNSGGSSDTSSDNSASSDDSGTTDSNQSDTTAETPDPVTGLITKSDGTLVDPSTGGTVDPDDGSIHDATTGQYIGLADRYLNATVCAVPAKNLEHHHHHH”: “not failed”.
The same measure for “SPESLYLLWGPQMQFFFNDAYRPVLGPRLANALGQTIQTLWADAWPDVQPMVEQAFLGYSCRHEDLPVNMQRYPGEELTWWSFSMSPVYDEDDEQVLGVLCHTVETTDRVLLARHARQTEAH”: “failed”.

(Values after a protein production outcome set (Wang et al. 2014).)
